Results reported in patent publication US20230118517A1, “METHODS OF TREATING MULTIPLE MYELOMA” (Seagen Inc., priority 2020, published 2023).
Several values for one entry are separate records, joined by “and”; a condition that tells them apart may be missing. Equal entries are not always repeated.

Key:
[1] = tested on: NF-κB p65; experiment: NF-κB p65 activity ELISA on nuclear extract; assay type: cell-based; settings: NCI-H929, 20 μg/mL SEA-BCMA, 0.2 μM Nirogacestat
Method: The secondary mechanism of action of SEA-BCMA is to block BCMA proliferative cell signaling. Increased BCMA from GSI treatment is expected to induce increased BCMA signaling. Therefore, the block of this enhanced signaling by SEA-BCMA was tested. BCMA-expressing NCI-H929 cells were serum-starved with and without 0.2 μM Nirogacestat (purchased from SelleckChem) for 16 hrs. Cells were then bound with and without 20 μg/mL SEA-BCMA and incubated with and without 1 μg/ml recombinant human APRIL (R&D Systems) for 20 minutes at 37° C. in the presence or absence of 0.2 μM Nirogacestat. 1 μg of nuclear extract was assayed in duplicate for NF-κB p65 activity by ELISA (TransAM NFκB Chemi p65, Active Motif).

[2] = molecular target: T1, BCMA on MM1R cells (Homo sapiens, UniProt Q02223); experiment: In vitro cell binding capacity assay (free SEA-BCMA in patient serum); assay type: cell-based; settings: for patients in whom high levels of free SEA-BCMA were maintained throughout the dosing period: Q2wk
T1 construct: endogenous in cells; host or cells: MM1R cells
T1 sequence (Q02223 1-184): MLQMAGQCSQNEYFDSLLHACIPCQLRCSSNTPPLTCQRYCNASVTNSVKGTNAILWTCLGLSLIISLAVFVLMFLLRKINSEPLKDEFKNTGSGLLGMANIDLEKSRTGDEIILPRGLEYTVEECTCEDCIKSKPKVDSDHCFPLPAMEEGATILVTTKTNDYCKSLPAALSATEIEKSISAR
Excerpt: An in vitro cell binding capacity assay was developed to complement serum concentration measurements of total SEA-BCMA, total soluble BCMA, and flow cytometric evaluation of free, unbound BCMA and total BCMA on plasma cells from the bone marrow. The assay measures the ability of free, unbound SEA-BCMA (e.g. not bound by sBCMA) from patient serum to bind and saturate BCMA in-vitro on a BCMA positive cell line. Titrations of known SEA-BCMA concentrations allow for an evaluation of the concentrations of free, unbound SEA-BCMA in patient serum. Together with a measurement of the percent-bound BCMA on the cell surface, this provides a direct indication of the ability of dosed SEA-BCMA to bind and saturate cell membrane-bound BCMA.
After incubation at room temperature for ½ hour, the cells were washed and stained with a saturating amount of SEA-BCMA conjugated to a fluorescent dye. After incubation at 4° C. in the dark for ½ hr, the cells were washed and fixed. Stained cells were analyzed on an Invitrogen Attune NxT flow cytometer. FlowJo V10 software was used to gate on viable cells and record the median fluorescent intensity (MFI). GraphPad Prism 8 was used for analysis.
The recorded MFI was normalized as follows. Normalization to 0% binding is the MFI from a control well incubated in healthy human serum with no SEA-BCMA present. Normalization to 100% binding is the MFI from a control well incubated in healthy human serum spiked with SEA-BCMA to a concentration 200 μg/mL. A titration of SEA-BCMA in healthy human serum may be used to generate a standard curve using the known amounts of SEA-BCMA.
The maintenance of free SEA-BCMA in the patient serum that are able to bind in vitro to the cell-surface BCMA of a BCMA-expressing cell line was investigated.

[3] = tested on: MM1R myeloma target cells; experiment: PBMC-mediated MM1R target cell killing, first experiment (48 hrs, 3 μM pomalidomide); assay type: cell-based; settings: combined with Pomalidomide, benchmarked against elotuzumab and WT-BCMA, N=2
Method: Experiments were performed to test whether SEA-BCMA combines effectively with pomalidomide in vitro by combining PBMC effector cells with MM1R target cells treated with both pomalidomide and SEA-BCMA or antibody controls. The first experiment (FIG. 12A) benchmarks against MM standard of care elotuzumab and nonfucosylated parent BCMA antibody. The second experiment (FIG. 12B) benchmarks against MM standard of care daratumumab. MM1R target cells express 15,000 copies of BCMA, 12,000 copies of CS1 (elotuzumab target), and 36,000 copies of CD38 (daratumumab target).
In the first experiment (FIG. 12A), normal donor PBMCs of the FcγRIII V/F genotype were mixed with CFSE (Invitrogen cat #V12883) labeled MM1R myeloma target cells at an effector-to-target cell ratio of 10:1. The mixture was treated with a dose range of the following antibodies: SEA-BCMA, elotuzumab, WT-BCMA (fucosylated parent Ab), or non-binding hIgG1k antibody control (Sigma cat #15154) with or without 3 μM pomalidomide (APEx Bio, cat #A4211). After 48 hrs, the % live MM1R cells were then determined using the viability dye 7-AAD (BD Biosciences, cat #559925) by flow cytometry.

[4] = molecular target: T2, membrane BCMA on malignant plasma cells (Homo sapiens, UniProt Q02223); experiment: Flow cytometric assessment of BCMA expression and engagement on MM cells in bone marrow; assay type: in vivo
T2 construct: from tissue; host or cells: multiple myeloma cells in patients' bone marrow aspirates
T2 sequence (Q02223 1-184): T1 sequence (Q02223 1-184)
Method: A Flow Cytometric Assay was designed to identify multiple myeloma cells in patients bone marrow aspirate, and measure levels of BCMA (unbound and total) and APRIL on the MM cell surface.
Bone marrow aspirates were collected from enrolled patients at Baseline and on-treatment (C2D22, confirmation of CR, per standard of care), and tested by flow cytometry with one day of collection in most cases.
MM cells detection was performed using extracellular CD138, CD38, CD45, CD56 and CD28 staining and intracellular kappa and lambda light chains staining. […] Detection of APRIL, most probably bound to BCMA on the MM cell surface, is also performed.
Each sample was split into 3 aliquots: one aliquot stained using only the MM gating antigens but no anti-BCMA or anti-APRIL antibodies (gating control), one aliquot stained with MM Gating antigens and the two labeled anti-BCMA antibodies, and one incubated for 2 hours at 37 C with spiked BCMA (100 ug/mL) before staining with MM gating antigens+APRIL+labeled non-competing anti-BCMA 16.16 antibody. After staining, washing and fixation in 2% paraformaldyde, cells were analyzed on a BD FACScanto cytometer, with up to 2×10^6 leukocytes acquired. Data analysis was performed with FACS Diva (Q2) and FlowJo (Seattle Genetics).

[5] = Pharmacokinetic analysis of SEA-BCMA serum concentration in patients

Substance: SEA-BCMA: non-fucosylated monoclonal anti-BCMA antibody having heavy chain SEQ ID NO: 13 and light chain SEQ ID NO: 15
- block of Nirogacestat-increased NF-κB signaling [1]: partially blocked
- patients in whom high levels of free SEA-BCMA were maintained throughout the dosing period ([2]; 800 mg (or equivalent)): 6/8 and 6 out of 8
- patients in whom high levels of free SEA-BCMA were maintained throughout the dosing period ([2]; 1600 mg): 7/7 and all patients
- maintenance of >95% bound BCMA in vitro through the dosing interval ([2]; serum of patients dosed 100 mg-400 mg, two doses 14 days apart): not able to maintain >95% bound BCMA in vitro
- MM1R target cell killing [3]: greater MM1R target cell killing
- saturation of membrane BCMA ([4]; 1600 mg): complete saturation was observed in at least one patient
- unbound membrane BCMA on malignant plasma cells ([4]; bone marrow of patients treated in dose escalation): reduced levels of unbound membrane BCMA
- saturation of membrane BCMA ([4]; evaluable patients dosed at 800 mg and 1600 mg): Incomplete saturation of membrane BCMA
- time at which PK reaches steady state ([5]; Q2W dosing): steady state at cycle 3
- accumulation at steady state ([5]; after Q2W dosing): approximately 70%
